How the values were obtained:
[1] = biological target: T1, Macaca fascicularis PD-1 (Swiss-Prot entry B0LAJ3), full length, on cells (Macaca fascicularis, UniProt Q15116 25-288 (human entry)); experiment: CELISA on CHO-K1 cells transiently transfected with cyno PD-1
T1 construct: Full length open reading frame transiently expressed on CHO-K1 cells; also endogenous PD-1 on CD3/CD28-stimulated cynomolgus PBMCs; No signal peptide limits are stated for the cynomolgus entry; also called cyno PD-1; cynomolgus PD-1
T1 chain: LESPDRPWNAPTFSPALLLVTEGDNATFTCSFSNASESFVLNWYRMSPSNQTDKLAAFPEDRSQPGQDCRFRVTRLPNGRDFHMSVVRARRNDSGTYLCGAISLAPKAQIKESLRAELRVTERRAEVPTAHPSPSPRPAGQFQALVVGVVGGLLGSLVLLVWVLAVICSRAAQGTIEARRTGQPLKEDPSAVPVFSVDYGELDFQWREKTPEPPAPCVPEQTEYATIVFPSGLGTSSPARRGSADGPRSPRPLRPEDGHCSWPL
Method: Parental CHO-K1 or CHO-K1.cynoPD1 cells were seeded in tissue culture plates and incubated for 48 hours at 37° C. Subsequently culture medium was removed and cells were incubated for 1 hour with purified hPD-1 antibodies (10 μg/ml (=66 nM) and dilutions thereof) at 37° C. Next, cells were washed with PBST and incubated for 1 hour at 37° C. with Goat-anti-human (Jackson Immuno Research). Subsequently, cells were washed 3 times with PBST and anti-hPD1 immunoreactivity was visualized with 100 μL TMB Stabilized Chromagen (Invitrogen). Reactions were stopped with 100 μL 0.5 M H2SO4 and absorbances were read at 450 and 610 nm.

[2] = biological target: T2, hPD-1/Fc fusion protein (R&D Systems) (human, UniProt Q15116 25-167); experiment: BLI (Octet RED96), hPD-1/Fc amine-coupled, IgG in solution, 1:1 global fit
T2 construct: Bought reagent; also called Recombinant hPD-1/Fc; not shown: Fc part of the bought fusion protein
Method: This assay was, performed by coupling hPD-1/Fc fusion protein (R&D Systems) to amine-reactive second generation biosensors (Fortebio) using standard amine chemistry. […] Amine-reactive biosensors were pre-wet by immersing them in wells containing 0.1M MES pH=5.5 for 10 minutes. The biosensors were then activated using a 0.1M NHS/0.4M EDC mixture for 5 minutes. hPD-1/Fc fusion protein was coupled by immersing the biosensors in a solution of 12 ug/mL hPD-1/Fc in 0.1 M MES for 7.5 minutes. The biosensor surface was quenched using a solution of 1M ethanolamine for 5 minutes. Biosensors were equilibrated in Octet kinetics buffer (ForteBio) for 5 minutes. […] Dissociation was measured after transfer of the biosensors into kinetics buffer and monitoring of the interferometry signal for 45 minutes. The assay was run with a plate temperature of 30° C. The observed on and off rates (kobs and kd) were fit using a 1:1 binding global fit model comprising all concentrations tested, and the equilibrium binding constant KD was calculated.

[3] = biological target: T1, Macaca fascicularis PD-1 (Swiss-Prot …); experiment: flow cytometry, Binding (%), on anti-CD3/anti-CD28 stimulated cynomolgus PBMCs, animal #2
Method: (§1) To this end Macacaca fascicularis (cynomolgus) blood was diluted 1:1 with PBS and added to 50 ml tubes containing 13 ml Lymphoprep 95%/PBS 5%. Cells were centrifuged for 30′ at 450 g and 20° C. without brake. Next, plasma was removed by aspiration and PBMCs were recovered from the plasma/Ficoll interface. PBMCs were washed twice times in PBS. Cells were frozen in liquid nitrogen and retrieved from the freezer on the day of the experiment. Since endogenous expression of PD-1 on resting T cells is low thus the thawed PBMCs were stimulated with αCD3/αCD28 coated beads (Gibco) for 48 hours.

[4] = biological target: T1, Macaca fascicularis PD-1 (Swiss-Prot …); experiment: flow cytometry on CD3/CD28-stimulated cynomolgus PBMCs, three animals
Method: as §1

T2 sequence (Q15116 25-167 limits assumed): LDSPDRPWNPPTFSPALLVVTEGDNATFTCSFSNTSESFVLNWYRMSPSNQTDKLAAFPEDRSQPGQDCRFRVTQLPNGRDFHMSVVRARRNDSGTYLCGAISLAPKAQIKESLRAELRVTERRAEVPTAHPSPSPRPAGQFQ

EC50 [1]: 0.45 nM
Kd [2]: 0.011 nM
koff [2]: 9.2e-06 s⁻¹
kon [2]: 860000 M⁻¹ s⁻¹
EC50 (read off the curve) [3]: ~2 nM
EC50 [4]: 1.6 nM
B1: hPD1.29H5L4 (antibody, V domains shown)
VH: EVQLVQSGAEVKKPGASVKVSCKASGYIFTTYYIHWVKQAPGKGLEWIGWIFPGDVSTQYNEKFQDKATITVDKSASTAYMQLSSLRSEDTAVYYCTREAYDYAVYWGQGTLVTVSS
VL: DIQMTQAPSSLSASVGDRVTITCKASQNVDTNVAWFQQKPGKAPKSLIFSASYRYSGVPSRFSGSGSGTDFTLTISSLQPEDFATYYCQQYNNYPFTFGGGTKLEIK
notes: Expressed as human IgG4, kappa with the stabilizing S241P (Kabat) hinge mutation in HEK293 cells; also called humanized PD-1 antibody hPD1.29H5L4

Reference: US20180030137A1 (ADURO BIOTECH HOLDINGS EUROPE B V, published 2018)
